Source: US20200048360A1 (TRACON PHARMACEUTICALS, published 2020)
Changes are numbered by the printed parent chain. Read-outs that look alike come from different tables or passages of the source. Blank lines part the entries; values can stand above or below the binder they belong to.

Key:
[1] = target: T1, human CD105 (R&D Systems, Catalog No. 1097-EN) (human, UniProt P17813 26-586); assay: ELISA with OD450 falling against test antibody concentration (competition format of paragraph 712: biotinylated chimeric anti-CD105 on captured human CD105; the legend says only 'binding assay data')
T1 construct: Captured on the plate by mouse anti-human CD105 (Southern Biotechnologies 9811-01); also called endoglin
T1 sequence (looked up): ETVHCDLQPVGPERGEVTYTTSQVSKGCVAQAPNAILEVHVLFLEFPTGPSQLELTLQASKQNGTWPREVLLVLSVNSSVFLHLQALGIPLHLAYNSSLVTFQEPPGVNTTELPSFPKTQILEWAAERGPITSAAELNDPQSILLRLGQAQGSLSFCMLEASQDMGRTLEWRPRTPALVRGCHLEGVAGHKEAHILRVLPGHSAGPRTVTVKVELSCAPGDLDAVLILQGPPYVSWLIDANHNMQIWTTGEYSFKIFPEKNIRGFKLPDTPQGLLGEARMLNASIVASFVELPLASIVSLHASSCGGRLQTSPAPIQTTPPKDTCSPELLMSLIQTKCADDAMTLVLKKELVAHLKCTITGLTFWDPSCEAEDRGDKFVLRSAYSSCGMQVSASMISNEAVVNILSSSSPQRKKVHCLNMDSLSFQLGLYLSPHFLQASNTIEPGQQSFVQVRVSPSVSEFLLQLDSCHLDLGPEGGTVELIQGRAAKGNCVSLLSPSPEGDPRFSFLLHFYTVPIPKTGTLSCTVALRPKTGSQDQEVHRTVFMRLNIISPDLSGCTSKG

[2] = target: T1, human CD105 (R&D Systems, Catalog No. …); assay: as above; remark: listed apart in the source
[3] = target: T1, human CD105 (R&D Systems, Catalog No. …); assay: as above; remark: listed apart in the source
[4] = target: T1, human CD105 (R&D Systems, Catalog No. …); assay: as above; remark: listed apart in the source
recombinant endoglin = target: T2, recombinant endoglin (UniProt P17813 26-586, limits assumed); assay: BIAcore SPR, antibody captured on protein A chip, recombinant endoglin as analyte, 25 C
T2 sequence (looked up): T1 sequence (looked up)
Experimental: Affinity of antibodies can be assessed using, for example, BIAcore analysis using standard protocols. Briefly, protein A is chemically coupled to a BIAcore CM5 chip, with the amount of protein A immobilized corresponding to ˜2000 R U. Subsequent steps are performed in a running buffer of 10 mM HEPES, 150 mM NaCl, 3 mM EDTA, 0.05% TWEEN, pH=7.4, at 25 degrees Celsius using a 10 Hz data collection rate. Anti-endoglin antibody (10 nM) is captured at a 10 μL/min flow rate by the immobilized protein A on the BIAcore chip: typically, capture times of 20, 40 and 80 seconds allow the capture of antibody densities corresponding to 130 RU, 330 RU and 570 RU, respectively. Start-up cycles are performed using running buffer at a flow rate of 40 μl/min, a contact time of 90 seconds and a dissociation time of 90 seconds. Sample cycles are performed using recombinant endoglin at concentrations ranging from 0 to 40 nM. Endoglin is passed over the BIAcore chip containing captured antibody at a flow rate of 40 μl/min with a contact time of 525 seconds and dissociation time of 2500 seconds. Eight sample cycles are typically performed at each antibody capture density Regeneration of the chip is accomplished using 10 mM glycine pH=1.7. Data analysis is performed using BIAcore T100 Evaluation Software v1.1 Signals generated using BIAcore chips with different captured antibody densities are compared and data generated in the absence of recombinant endoglin are used to adjust for the intraassay blank signal. For fitting of the data, the Rₘₐₓ is allowed to float to account for variation in capture levels of each antibody in each cycle. Data from each capture density is fitted simultaneously during analysis of each antibody. BIAcore data are presented in Table 2 for chimeric, humanized and humanized/deimmunized anti-endoglin antibodies, including kₐ (1/Ms), kd (1/s), KD (M) and […] (RU²).

[5] = target: T1, human CD105 (R&D Systems, Catalog No. …); assay: ELISA with OD450 falling against test antibody concentration (competition format of paragraph 712: biotinylated chimeric anti-CD105 on captured human CD105; the legend says only 'binding assay data'); remark: listed apart in the source
[6] = target: T1, human CD105 (R&D Systems, Catalog No. …); assay: as above; remark: listed apart in the source
[7] = target: T1, human CD105 (R&D Systems, Catalog No. …); assay: as above; remark: listed apart in the source
[8] = target: T1, human CD105 (R&D Systems, Catalog No. …); assay: as above; remark: listed apart in the source
[9] = target: T1, human CD105 (R&D Systems, Catalog No. …); assay: competition ELISA on captured human CD105; competitor biotinylated chimeric anti-CD105
Experimental: Antibodies were tested in a competition ELISA for binding to CD105 against biotinylated chimeric anti-CD105. Briefly, chimeric anti-CD105 was biotinylated using a micro-biotinylation kit (Sigma, Catalog No. BTAG-1KT) following the manufacturer's instructions. […] Binding of the biotinylated chimeric antibody was detected via streptavidin-HRP (Sigma, Catalog No. 55512) and TMB substrate (Sigma, Catalog No. T0440). OD450 nm values were measured on a Dynex MRX TCII plate reader. The results of the competition analysis are illustrated in FIGS. 7 and 8. […] To allow for comparisons within and between experiments, IC50 values of humanized or humanized/deimmunized variants were normalized against the reference antibody that was included on each plate to give a value for the fold difference. IC50 values are relative to chimeric anti-CD105 and are representative of three experiments. Summary ELISA data are presented in Table 1 and include antibody expression levels […]) as assayed in saturated static cultures.

IC50 (read off the curve) [1]: ~0.2 µg/mL
IC50 (read off the curve) [2]: ~0.2 µg/mL
IC50 (read off the curve) [3]: ~0.2 µg/mL
IC50 (read off the curve) [4]: ~0.2 µg/mL
Kd (recombinant endoglin): 0.6 nM
koff (recombinant endoglin): 3.28e-05 s⁻¹
kon (recombinant endoglin): 54700 M⁻¹ s⁻¹
IC50 (read off the curve) [5]: ~0.2 µg/mL
IC50 (read off the curve) [6]: ~0.2 µg/mL
IC50 (read off the curve) [7]: ~0.2 µg/mL
IC50 (read off the curve) [8]: ~0.2 µg/mL
B1: chimeric anti-CD105 antibody TRC105 (antibody, V domains shown)
VH: EVKLEESGGGLVQPGGSMKLSCAASGFTFSDAWMDWVRQSPEKGLEWVAEIRSKASNHATYYAESVKGRFTISRDDSKSSVYLQMNSLRAEDTGIYYCTRWRRFFDSWGQGTTLTVSS
VL: QIVLSQSPAILSASPGEKVTMTCRASSSVSYMHWYQQKPGSSPKPWIYATSNLASGVPVRFSGSGSGTSYSLTISRVEAEDAATYYCQQWSSNPLTFGAGTKLELK
notes: Chimeric monoclonal antibody with the murine SN6j variable regions; also called chimeric anti-endoglin antibody; c-SN6j

IC50 (read off the curve) [6]: ~0.2 µg/mL
Relative IC50 (fold of chimeric anti-endoglin antibody) [9]: 0.99 fold relative to chimeric
B2: VK2AAVH1A2 (antibody, V domains shown)
VH: EVQLVESGGGLVKPGGSLRLSCAASGFTFSDAWMDWVRQAPGKGLEWVGEARSKASNHATYYAESVKGRFTISRDDSKNTLYLQMNSLKTEDTAVYYCTRWRRFFDSWGQGTLVTVSS
VL: DIQLTQSPSSLSASVGDRATITCRASSSVSYMHWYQQKPGKAPKPWAYATSNLASGVPSRFSGSGSGTDYTLTISSLQPEDFATYYCQQWSSNPLTFGGGTKVEIK
notes: IgG1 heavy chain, kappa light chain

Kd (recombinant endoglin): 0.533 nM
koff (recombinant endoglin): 3.41e-05 s⁻¹
kon (recombinant endoglin): 64000 M⁻¹ s⁻¹
Relative IC50 (fold of chimeric anti-endoglin antibody) [9]: 1.05 fold relative to chimeric
IC50 (read off the curve) [8]: ~0.2 µg/mL
B3: VK1AAVH1R (antibody, V domains shown)
VH: B2 VH with A51I, K54R
VL: B2 VL with L4M
notes: as for B2

Kd (recombinant endoglin): 0.706 nM
koff (recombinant endoglin): 3.25e-05 s⁻¹
kon (recombinant endoglin): 46000 M⁻¹ s⁻¹
Relative IC50 (fold of chimeric anti-endoglin antibody) [9]: 1.12 fold relative to chimeric
IC50 (read off the curve) [7]: ~0.2 µg/mL
B4: VK1AAVH1A2 (antibody, V domains shown)
VH: B2 VH
VL: B2 VL with L4M
notes: IgG1 heavy chain, kappa light chain; also called humanized/deimmunized anti-endoglin antibody VK1AAVH1A2

IC50 (read off the curve) [2]: ~0.2 µg/mL
Kd (recombinant endoglin): 0.85 nM
koff (recombinant endoglin): 3.03e-05 s⁻¹
kon (recombinant endoglin): 35600 M⁻¹ s⁻¹
Relative IC50 (fold of chimeric anti-endoglin antibody) [9]: 1.3 fold relative to chimeric
B5: VK1AAVH1Q (antibody, V domains shown)
VH: B2 VH with A51I, K54Q
VL: B2 VL with L4M
notes: as for B2
